The text below walks through data of IntAct's records for PubMed 17698606.

B1: S phase cyclin A-associated protein in the endoplasmic reticulum (Homo sapiens), Q9BY12 (parent)
chain: MMASFQRSNSHDKVRRIVAEEGRTARNLIAWSVPLESKDDDGKPKCQTGGKSKRTIQGTHKTTKQSTAVDCKITSSTTGDKHFDKSPTKTRHPRKIDLRARYWAFLFDNLRRAVDEIYVTCESDQSVVECKEVLMMLDNYVRDFKALIDWIQLQEKLEKTDAQSRPTSLAWEVKKMSPGRHVIPSPSTDRINVTSNARRSLNFGGSTGTVPAPRLAPTGVSWADKVKAHHTGSTASSEITPAQSCPPMTVQKASRKNERKDAEGWETVQRGRPIRSRSTAVMPKVSLATEATRSKDDSDKENVCLLPDESIQKGQFVGDGTSNTIESHPKDSLHSCDHPLAEKTQFTVSTLDDVKNSGSIRDNYVRTSEISAVHIDTECVSVMLQAGTPPLQVNEEKFPAEKARIENEMDPSDISNSMAEVLAKKEELADRLEKANEEAIASAIAEEEQLTREIEAEENNDINIETDNDSDFSASMGSGSVSFCGMSMDWNDVLADYEARESWRQNTSWGDIVEEEPARPPGHGIHMHEKLSSPSRKRTIAESKKKHEEKQMKAQQLREKLREEKTLKLQKLLEREKDVRKWKEELLDQRRRMMEEKLLHAEFKREVQLQAIVKKAQEEEAKVNEIAFINTLEAQNKRHDVLSKLKEYEQRLNELQEERQRRQEEKQARDEAVQERKRALEAERQARVEELLMKRKEQEARIEQQRQEKEKAREDAARERARDREERLAALTAAQQEAMEELQKKIQLKHDESIRRHMEQIEQRKEKAAELSSGRHANTDYAPKLTPYERKKQCSLCNVLISSEVYLFSHVKGRKHQQAVRENTSIQGRELSDEEVEHLSLKKYIIDIVVESTAPAEALKDGEERQKNKKKAKKIKARMNFRAKEYESLMETKNSGSDSPYKAKLQRLAKDLLKQVQVQDSGSWANNKVSALDRTLGEITRILEKENVADQIAFQAAGGLTALEHILQAVVPATNVNTVLRIPPKSLCNAINVYNLTCNNCSENCSDVLFSNKITFLMDLLIHQLTVYVPDENNTILGRNTNKQVFEGLTTGLLKVSAVVLGCLIANRPDGNCQPATPKIPTQEMKNKPSQGDPFNNRVQDLISYVVNMGLIDKLCACFLSVQGPVDENPKMAIFLQHAAGLLHAMCTLCFAVTGRSYSIFDNNRQDPTGLTAALQATDLAGVLHMLYCVLFHGTILDPSTASPKENYTQNTIQVAIQSLRFFNSFAALHLPAFQSIVGAEGLSLAFRHMASSLLGHCSQVSCESLLHEVIVCVGYFTVNHPDNQVIVQSGRHPTVLQKLCQLPFQYFSDPRLIKVLFPSLIAACYNNHQNKIILEQEMSCVLLATFIQDLAQTPGQAENQPYQPKGKCLGSQDYLELANRFPQQAWEEARQFFLKKEKK

The variants in this test derive from B1. The settings on record: with cdk2_human CDK2, P24941.
R199A;S200A;L201A: the “effect of a mutation on the interaction” value is given as “disrupting interaction strength”.

For R678A;L680A, the “effect of a mutation on the interaction” value is “with no effect”. Under R26A;N27A;L28A stands “with no effect”.
